Measured values as given in patent US12497460B2, “Anti-MSR1 antibodies and methods of use thereof” (REGENERON PHARMACEUTICALS, INC., priority 2018, dated 2025).

T1: Ox-LDL binding to His9-hMSR1 (Homo sapiens, UniProt P21757)
T1 construct: human MSR1 extracellular domain expressed with a N-terminal nonahistidine tag; His9 (nonahistidine) (N); purchased R&D Systems 2708-MS
T1 sequence (P21757 77-451 limits assumed): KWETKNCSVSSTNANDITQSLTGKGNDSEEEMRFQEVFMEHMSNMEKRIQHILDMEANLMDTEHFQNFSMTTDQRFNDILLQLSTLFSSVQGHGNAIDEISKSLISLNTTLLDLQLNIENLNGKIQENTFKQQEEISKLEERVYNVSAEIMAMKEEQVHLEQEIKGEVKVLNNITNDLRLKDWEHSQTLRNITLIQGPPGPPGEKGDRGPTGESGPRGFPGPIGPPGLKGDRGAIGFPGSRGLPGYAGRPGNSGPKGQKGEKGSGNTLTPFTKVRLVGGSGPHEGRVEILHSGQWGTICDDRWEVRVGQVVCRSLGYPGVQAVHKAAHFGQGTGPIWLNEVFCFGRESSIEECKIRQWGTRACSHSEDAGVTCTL

T2: biot-AGE-BSA binding to His9-hMSR1 (Homo sapiens, UniProt P21757)
T2 construct: human MSR1 extracellular domain expressed with a N-terminal nonahistidine tag; His9 (nonahistidine) (N); purchased R&D Systems 2708-MS
T2 sequence (P21757 77-451 limits assumed): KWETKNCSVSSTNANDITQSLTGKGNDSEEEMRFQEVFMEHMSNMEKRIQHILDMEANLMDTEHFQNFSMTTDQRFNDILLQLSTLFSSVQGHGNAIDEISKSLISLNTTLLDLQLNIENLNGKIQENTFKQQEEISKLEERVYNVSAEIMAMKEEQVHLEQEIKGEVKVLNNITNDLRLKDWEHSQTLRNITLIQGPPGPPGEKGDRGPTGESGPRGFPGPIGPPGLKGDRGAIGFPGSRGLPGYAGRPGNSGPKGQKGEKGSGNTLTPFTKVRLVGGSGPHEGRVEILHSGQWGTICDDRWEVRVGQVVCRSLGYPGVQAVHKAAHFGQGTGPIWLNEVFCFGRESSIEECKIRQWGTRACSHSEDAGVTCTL


Columns and labels:
[1] = biological target: T1, Ox-LDL binding to His9-hMSR1; assay: Competition sandwich ELISA, blocking of Ox-LDL binding; conditions: antibody 500 nM, Ox-LDL 10 nM
Experimental: (§1) The ability of anti-MSR1 antibodies disclosed herein to block the binding of various ligands to human MSR1 was measured using three competition sandwich ELISA assays. The ligands used in the assays were: (1) acetylated LDL (Ac-LDL), (2) oxidized LDL (Ox-LDL), and (3) advanced glycation end-products of bovine serum albumin (AGE-BSA).
Anti-MSR1 antibodies or isotype control antibodies were serially diluted as appropriate for each tested ligand and added in duplicate for each serial dilution set to microtiter plates coated with His9-hMSR1. Buffer alone was also added to wells on each coat. […] This assay was conducted in four different assay runs.
(§2) Data analysis was performed using a sigmoidal dose-response model within Prism™ software (GraphPad). Percent blockade at maximum concentration of the antibody tested in each assay was calculated as an indicator of the ability of the antibodies to block the binding of Ac-LDL, Ox-LDL or biot-AGE-BSA to His9-hMSR1 on the plate relative to the baseline of the assay. In the calculation, binding signal of the same concentrations of Ac-LDL, Ox-LDL, or biot-AGE-BSA used for the assays in the absence of antibody was referenced as 100% binding or 0% blocking, while the baseline of the assay, defined as binding signal of the sample of buffer without MSR1 ligands or antibody, was referenced as 0% binding or 100% blocking. The maximum percent blockade at the highest concentration of antibody tested in each assay are reported for all antibodies.

[2] = biological target: T2, biot-AGE-BSA binding to His9-hMSR1; assay: Competition sandwich ELISA, blocking of biot-AGE-BSA binding; conditions: 400 pM biot-AGE-BSA
Experimental: as §1
For the assay, recombinant monomeric human MSR1 protein comprised of a portion of the human MSR1 extracellular domain expressed with a N-terminal 9-Histidine tag (His9-hMSR1; R&D Systems, Cat #2708-MS) was coated at a concentration of 2 μg/mL in PBS on a 96-well microtiter plate overnight at 4° C. for use in competition ELISA assays with Ac-LDL, Ox-LDL, or biotinylated-AGE-BSA (“biot-AGE-BSA”). […] Anti-MSR1 antibodies or isotype control antibodies were serially diluted as appropriate for each tested ligand and added in duplicate for each serial dilution set to microtiter plates coated with His9-hMSR1. Buffer alone was also added to wells on each coat. After 1 hour incubation at room temperature, without wash, a final constant concentration of 50 pM Ac-LDL (Life Technologies/ThermoFisher Scientific, Cat #L-35354), 5 nM or 10 nM Ox-LDL (Alfa Aesar, Cat #J65591), or 400 pM biot-AGE-BSA (R&D Systems, Cat #BT4127) were added to plates with His9-hMSR1, and the plates were incubated for an additional 1 hour at room temperature. (Concentrations of Ac-LDL, Ox-LDL and biot-AGE-BSA for antibody inhibition assays were selected from the approximate midway point within the linear portion of individual binding curves of Ac-LDL, Ox-LDL or biot-AGE-BSA to plate-coated His9-hMSR1.) Wells were washed, and plate-bound Ac-LDL or Ox-LDL were detected with anti-LDL rabbit antibody (Alfa Aesar, Cat #J64398) in combination with anti-rabbit IgG (H+L) specific donkey polyclonal antibodies conjugated with horseradish peroxidase (HRP) (JacksonImmunoResearch, Cat #711-035-152) and biot-AGE-BSA was detected with a streptavidin-HRP (ThermoFisher Scientific, Cat #N200). Plates were developed using TMB substrate solution (BD Biosciences, Cat #51-2606KC & Cat #51-2607KC) according to manufacturer's recommendation and absorbance at 450 nm was measured on a Victor™ Multilabel Plate Reader (PerkinElmer™). This assay was conducted in four different assay runs.
as §2, with “antibodies. Negative percent blockade numbers reflected higher MSR1 ligands binding to plate coated His9-hMSR1 in the presence of antibodies.” for “antibodies.”

Molecule	anti-MSR1 antibody blocking of Ox-LDL binding to His9-hMSR1 % Blocking [1] [%]	Anti-MSR1 antibody (300 nM) blocking of biot-AGE-BSA binding to His9-hMSR1 % Blocking [2] [%]
H1H21227N-N297Q: "modified versions of 21227N (H1H21227N-N297Q and H1H21227N-N297D)"; anti-MSR1 antibody "with a N297Q single point mutation" (antibody, V domains shown) VH: QVQLVQSGAEVKKPGASVKVSCKVSGYTLTELSIHWVRQVPGKGLEWMGGFDPEEGETIFAQEFRDRVTLTEDTSPDTAYMELSSLKSEDAAVYYCTTPRYCNNGICYDYWGQGTLVTVSS VL: DIQMTQSPSSLSASVGDRVTITCRASQSISNYLNWYQQKPGKAPKLLIYTASSLQSGVPSRFSGSGSGTDFTLTISSLQTEDFATYYCQQSYSNFPITFGQGTRLEIKR	97	96
H1H21227N: "anti-MSR1 antibodies ... (21227N, 21231N, 21234N) were produced with the original human Fcγ portion"; "H1H" = human IgG1 Fc (antibody, V domains shown, human IgG1 Fc, "anti-MSR1 antibodies ; (21227N, 21231N, 21234N) were produced with the original human Fcγ portion"; "H1H" = human IgG1 Fc) VH: QVQLVQSGAEVKKPGASVKVSCKVSGYTLTELSIHWVRQVPGKGLEWMGGFDPEEGETIFAQEFRDRVTLTEDTSPDTAYMELSSLKSEDAAVYYCTTPRYCNNGICYDYWGQGTLVTVSS VL: DIQMTQSPSSLSASVGDRVTITCRASQSISNYLNWYQQKPGKAPKLLIYTASSLQSGVPSRFSGSGSGTDFTLTISSLQTEDFATYYCQQSYSNFPITFGQGTRLEIKR	100	99
H1H21227N-N297D: "The 21227N antibody was also produced as a third version with a N297D mutation" (antibody, V domains shown) VH: QVQLVQSGAEVKKPGASVKVSCKVSGYTLTELSIHWVRQVPGKGLEWMGGFDPEEGETIFAQEFRDRVTLTEDTSPDTAYMELSSLKSEDAAVYYCTTPRYCNNGICYDYWGQGTLVTVSS VL: DIQMTQSPSSLSASVGDRVTITCRASQSISNYLNWYQQKPGKAPKLLIYTASSLQSGVPSRFSGSGSGTDFTLTISSLQTEDFATYYCQQSYSNFPITFGQGTRLEIKR	99	97

Other lines, results leading:

anti-MSR1 antibody blocking of Ox-LDL binding to His9-hMSR1 % Blocking [1] [%]	Anti-MSR1 antibody (300 nM) blocking of biot-AGE-BSA binding to His9-hMSR1 % Blocking [2] [%]	Molecule
22	−44	H1H21231N: "anti-MSR1 antibodies ... (21227N, 21231N, 21234N) were produced with the original human Fcγ portion"; "H1H" = human IgG1 Fc (antibody, V domains shown, human IgG1 Fc, "anti-MSR1 antibodies ; (21227N, 21231N, 21234N) were produced with the original human Fcγ portion"; "H1H" = human IgG1 Fc) VH: EVQLVESGGGLVQPGGSLRLSCAASGFTFSDHYMDWVRQAPGKGLEWVGRTRNKANSHTTEYTASVTGRFTISRDDSRNSLYLQMNSLKTEDTAVYYCVRAGIIGTLFDYWGQGTLVTVSS VL: DIQMTQFPSSLSASVGDRVTITCRASQSISSFLNWFQQKPGKAPKFLIYAASSLQSGVPSRFSGSGSGTDFTLTISSLQPEDFATYYCQQSYSSPPITFGQGTRLEIKR
26	−50	H1H21231N-N297Q: modified version of "21231N (H1H21231N-N297Q) anti-MSR1 antibodies" with "a N297Q single point mutation" (antibody, V domains shown) VH: EVQLVESGGGLVQPGGSLRLSCAASGFTFSDHYMDWVRQAPGKGLEWVGRTRNKANSHTTEYTASVTGRFTISRDDSRNSLYLQMNSLKTEDTAVYYCVRAGIIGTLFDYWGQGTLVTVSS VL: DIQMTQFPSSLSASVGDRVTITCRASQSISSFLNWFQQKPGKAPKFLIYAASSLQSGVPSRFSGSGSGTDFTLTISSLQPEDFATYYCQQSYSSPPITFGQGTRLEIKR
